Experimental data published in publication PMC8628261 (Cell reports, 2021).

B1: mouse Kirrel3 ectodomain, wild type (domain or fragment, UniProt Q8BR86 22-535, looked up)
chain: LQKRGCCLVLGYMAKDKFRRMNEGQVYSFSQQPQDQVVVSGQPVTLLCAIPEYDGFVLWIKDGLALGVGRDLSSYPQYLVVGNHLSGEHHLKILRAELQDDAVYECQAIQAAIRSRPARLTVLVPPDDPIILGGPVISLRAGDPLNLTCHADNAKPAASIIWLRKGEVINGATYSKTLLRDGKRESIVSTLFISPGDVENGQSIVCRATNKAIPGGKETSVTIDIQHPPLVNLSVEPQPVLEDNIVTFHCSAKANPAVTQYRWAKRGHIIKEASGELYRTTVDYTYFSEPVSCEVTNALGSTNLSRTVDVYFGPRMTSEPQSLLVDLGSDAVFSCAWIGNPSLTIVWMKRGSGVVLSNEKTLTLKSVRQEDAGKYVCRAVVPRVGAGEREVTLTVNGPPIISSTQTQHALHGEKGQIKCFIRSTPPPDRIAWSWKENVLESGTSGRYTVETVNTEEGVISTLTISNIVRADFQTIYNCTAWNSFGSDTEIIRLKEQGSEMKSGAGLEAESVPMA
B2: mouse Kirrel2 ectodomain, wild type (domain or fragment, UniProt Q7TSU7 20-507, looked up)
chain: SPHFLQQPEDMVVLLGEEARLPCALGAYRGLVQWTKDGLALGGERDLPGWSRYWISGNSASGQHDLHIKPVELEDEASYECQASQAGLRSRPAQLHVMVPPEAPQVLGGPSVSLVAGVPGNLTCRSRGDSRPAPELLWFRDGIRLDGSSFHQTTLKDKATGTVENTLFLTPSSHDDGATLICRARSQALPTGRDTAVTLSLQYPPMVTLSAEPQTVQEGEKVTFLCQATAQPPVTGYRWAKGGSPVLGARGPRLEVVADATFLTEPVSCEVSNAVGSANRSTALEVLYGPILQAKPKSVSVDVGKDASFSCVWRGNPLPRITWTRMGGSQVLSSGPTLRLPSVALEDAGDYVCRAEPRRTGLGGGKAQARLTVNAPPVVTALQPAPAFLRGPARLQCVVFASPAPDSVVWSWDEGFLEAGSLGRFLVEAFPAPEVEGGQGPGLISVLHISGTQESDFTTGFNCSARNRLGEGRVQIHLGRRDLLPTVR

Biological target: the molecule itself
Experiment: AUC

Protein	Kd [nM]	stoichiometry N
B1	210	2
B2	900	2
